Results on two molecules are retold here after publication PMC6916587, “The roles of factor Va and protein S in formation of the activated protein C/protein S/factor Va inactivation complex” (Journal of Thrombosis and Haemostasis, 2019).

One assay concerns the target T1, protein S (wild type) (UniProt P07225).
T1 sequence (chain, gamma-carboxyglutamate at 36 (printed as Gla36)): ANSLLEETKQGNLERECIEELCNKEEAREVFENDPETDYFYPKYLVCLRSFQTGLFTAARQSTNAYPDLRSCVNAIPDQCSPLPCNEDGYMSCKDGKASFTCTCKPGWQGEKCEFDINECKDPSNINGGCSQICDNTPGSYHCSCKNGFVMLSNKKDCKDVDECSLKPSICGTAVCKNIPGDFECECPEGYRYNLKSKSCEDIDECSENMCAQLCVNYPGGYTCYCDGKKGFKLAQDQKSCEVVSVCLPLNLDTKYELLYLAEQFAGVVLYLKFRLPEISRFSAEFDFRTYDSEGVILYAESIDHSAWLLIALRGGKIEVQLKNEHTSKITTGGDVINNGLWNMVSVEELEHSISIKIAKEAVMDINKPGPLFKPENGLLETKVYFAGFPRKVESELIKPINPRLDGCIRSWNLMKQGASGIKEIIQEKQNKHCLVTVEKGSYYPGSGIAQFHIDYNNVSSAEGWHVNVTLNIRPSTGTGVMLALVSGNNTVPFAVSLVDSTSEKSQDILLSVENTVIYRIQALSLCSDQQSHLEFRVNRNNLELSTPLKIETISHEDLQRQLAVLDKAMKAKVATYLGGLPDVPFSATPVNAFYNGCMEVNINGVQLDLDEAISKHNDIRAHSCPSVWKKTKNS

The target of assay [1] is T2, activated factor V (FVa), wild type (UniProt P12259 29-737; P12259 1574-2224).
T2 construct: FVa heavy chain (A1-A2), cut from full-length recombinant FV by thrombin; FVa light chain (A3-C1-C2), cut from full-length recombinant FV by thrombin with release of the B domain; FV cDNA in vector pED from Dr Rodney Camire; also called WT FVa; factor Va
T2 sequence (looked up) 1: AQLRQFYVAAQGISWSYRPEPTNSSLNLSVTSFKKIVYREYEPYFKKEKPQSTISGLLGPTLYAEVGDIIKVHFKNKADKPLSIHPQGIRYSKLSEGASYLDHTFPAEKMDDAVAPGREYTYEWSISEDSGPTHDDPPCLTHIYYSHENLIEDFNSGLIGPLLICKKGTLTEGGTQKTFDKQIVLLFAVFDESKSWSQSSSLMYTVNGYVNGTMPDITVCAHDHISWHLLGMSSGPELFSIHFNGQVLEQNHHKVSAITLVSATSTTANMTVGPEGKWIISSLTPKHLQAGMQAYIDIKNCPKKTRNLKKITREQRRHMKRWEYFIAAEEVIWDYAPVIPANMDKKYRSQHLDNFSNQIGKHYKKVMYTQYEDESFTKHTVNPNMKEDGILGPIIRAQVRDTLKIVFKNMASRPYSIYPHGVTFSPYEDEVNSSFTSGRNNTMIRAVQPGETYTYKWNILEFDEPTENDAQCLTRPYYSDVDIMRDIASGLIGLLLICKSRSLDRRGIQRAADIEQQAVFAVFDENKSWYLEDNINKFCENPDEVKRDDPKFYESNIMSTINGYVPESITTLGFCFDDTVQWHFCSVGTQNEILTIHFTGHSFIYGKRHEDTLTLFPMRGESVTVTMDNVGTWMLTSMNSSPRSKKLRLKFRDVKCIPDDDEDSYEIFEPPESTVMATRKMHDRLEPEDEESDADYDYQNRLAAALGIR
T2 sequence (looked up) 2: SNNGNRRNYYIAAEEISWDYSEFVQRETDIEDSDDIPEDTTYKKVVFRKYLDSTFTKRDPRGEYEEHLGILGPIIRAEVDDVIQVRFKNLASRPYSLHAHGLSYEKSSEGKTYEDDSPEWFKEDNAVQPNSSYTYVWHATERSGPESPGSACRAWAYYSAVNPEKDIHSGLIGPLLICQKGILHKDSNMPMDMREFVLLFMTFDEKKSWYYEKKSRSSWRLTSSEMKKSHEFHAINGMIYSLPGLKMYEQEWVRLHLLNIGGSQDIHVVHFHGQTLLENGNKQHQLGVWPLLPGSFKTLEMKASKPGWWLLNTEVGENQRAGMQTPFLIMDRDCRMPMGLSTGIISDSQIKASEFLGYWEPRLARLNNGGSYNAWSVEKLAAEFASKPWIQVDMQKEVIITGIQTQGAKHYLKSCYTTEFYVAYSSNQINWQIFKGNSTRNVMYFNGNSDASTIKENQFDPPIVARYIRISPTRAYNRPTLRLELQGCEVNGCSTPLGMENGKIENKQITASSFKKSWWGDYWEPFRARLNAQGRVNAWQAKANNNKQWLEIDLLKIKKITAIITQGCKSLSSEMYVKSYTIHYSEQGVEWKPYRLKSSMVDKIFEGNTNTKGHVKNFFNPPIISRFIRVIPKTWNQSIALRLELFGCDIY
Put plainly: flow cytometry on phospholipid-coated magnetic beads; as a2, with 200 nmol/L β-chain-containing C4BP pre-incubated with 100 nmol/L protein S and 25 nmol/L FVa for 10 min before 50 nmol/L APC-Fluor. The following applies: both partners purified.

The target of assay [2] is T3, β-chain-containing C4b-binding protein (C4BP), protein S-free (human, UniProt P04003 49-597; P20851 18-252).
T3 construct: source: purified from pooled fresh frozen citrated human plasma
T3 sequence (looked up) 1: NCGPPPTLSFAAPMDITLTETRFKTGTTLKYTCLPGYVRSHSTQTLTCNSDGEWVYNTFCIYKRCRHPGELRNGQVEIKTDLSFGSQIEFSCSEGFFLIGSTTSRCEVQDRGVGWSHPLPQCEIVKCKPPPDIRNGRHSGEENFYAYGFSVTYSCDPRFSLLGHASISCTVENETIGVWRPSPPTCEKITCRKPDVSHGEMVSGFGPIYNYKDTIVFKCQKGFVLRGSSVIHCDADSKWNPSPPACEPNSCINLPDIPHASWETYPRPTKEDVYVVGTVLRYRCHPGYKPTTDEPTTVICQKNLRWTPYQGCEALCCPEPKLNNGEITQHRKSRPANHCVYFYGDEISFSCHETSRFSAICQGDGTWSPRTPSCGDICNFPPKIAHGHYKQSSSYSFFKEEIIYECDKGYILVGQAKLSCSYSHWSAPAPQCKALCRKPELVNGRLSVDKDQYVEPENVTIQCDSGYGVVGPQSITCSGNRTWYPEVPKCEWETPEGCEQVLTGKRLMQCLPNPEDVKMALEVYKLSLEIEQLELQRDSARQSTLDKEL
T3 sequence (looked up) 2: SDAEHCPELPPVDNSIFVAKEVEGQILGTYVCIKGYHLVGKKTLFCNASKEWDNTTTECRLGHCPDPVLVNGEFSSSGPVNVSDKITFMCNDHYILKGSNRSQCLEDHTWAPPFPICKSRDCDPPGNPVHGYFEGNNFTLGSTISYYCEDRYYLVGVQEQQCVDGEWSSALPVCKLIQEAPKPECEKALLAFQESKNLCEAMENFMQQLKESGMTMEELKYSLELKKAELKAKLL
The description is as above. To be noted: both partners purified.

Regarding “activated factor V Nara (FVa^Nara, W1920R) (from UniProt P12259 29-737; P12259 1574-2224) (natural protein)”, in the assay with protein S (wild type), the FVa inactivation assay (remaining FVa activity by prothrombinase assay): protein S needed for inactivation comparable to WT FVa at 3 nmol/L protein S; 0.25 nmol/L APC, 25 μmol/L phospholipids, 10 min was over 50 nmol/L and the FVa inactivation assay in the presence of protein S: APC (0-0.25 nmol/L) that reduces FVa activity by ~50%; 25 μmol/L phospholipids, 10 min is over 50 pmol/L.

B1: protein S (wild type) (natural protein, UniProt P07225 42-676, looked up)
chain: T1 sequence (chain, gamma-carboxyglutamate at 36 (printed as Gla36))
modifications: gamma-carboxyglutamate at 36 (printed as Gla36)
notes: protein S, wild type; also called WT protein S; PS; source: HEK293 cells, stably transfected, purified (barium citrate precipitation, anion exchange chromatography)
B1: the binding result in assay [1] and in assay [2] was “binds” throughout.
